Experimental data taken from patent publication US7071214B2, “Compounds and compositions for delivering active agents” (Emisphere Technologies, Inc., priority 1997, dated 2006).
Like-named read-outs stand apart in the source and are kept apart here.

Set-up: species or system Rats
Details: rat, in vivo

Row | Mean peak serum interferon concentration (50 mg/kg) | Compound | Mean peak serum interferon concentration (1 mg/kg) | Mean peak serum interferon concentration (po, 1 mg/kg)
1 | 2611±695 | O=C(O)CCCc1ccc(NC(=O)COc2ccccc2)cc1 [Compound 9, 4-(4-(phenoxyacetyl)aminophenyl)butyric acid] | – | –
2 | – | interferon | 79±100 | 1951±1857
